Article PMC3771942 (Molecular Biology of the Cell, 2013)

Molecular target: GST-Rho-G17A (UniProt P61586 1-193, G17A)
Assay: pull-down

Chain of GST-Rho-G17A (P61586 whole entry G17A): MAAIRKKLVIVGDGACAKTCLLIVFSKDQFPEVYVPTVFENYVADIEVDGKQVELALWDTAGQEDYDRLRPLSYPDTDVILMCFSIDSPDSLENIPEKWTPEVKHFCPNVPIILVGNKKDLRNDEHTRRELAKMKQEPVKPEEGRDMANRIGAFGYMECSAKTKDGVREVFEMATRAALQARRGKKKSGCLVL

fold decrease in pull down against wild-type LARG: 5 fold
B1: mCh-LARG-W769A (natural protein, UniProt Q9NZN5 1-1544, looked up)
chain: MSGTQSTITDRFPLKKPIRHGSILNRESPTDKKQKVERIASHDFDPTDSSSKKTKSSSEESRSEIYGLVQRCVIIQKDDNGFGLTVSGDNPVFVQSVKEDGAAMRAGVQTGDRIIKVNGTLVTHSNHLEVVKLIKSGSYVALTVQGRPPGSPQIPLADSEVEPSVIGHMSPIMTSPHSPGASGNMERITSPVLMGEENNVVHNQKVEILRKMLQKEQERLQLLQEDYNRTPAQRLLKEIQEAKKHIPQLQEQLSKATGSAQDGAVVTPSRPLGDTLTVSEAETDPGDVLGRTDCSSGDASRPSSDNADSPKSGPKERIYLEENPEKSETIQDTDTQSLVGSPSTRIAPHIIGAEDDDFGTEHEQINGQCSCFQSIELLKSRPAHLAVFLHHVVSQFDPATLLCYLYSDLYKHTNSKETRRIFLEFHQFFLDRSAHLKVSVPDEMSADLEKRRPELIPEDLHRHYIQTMQERVHPEVQRHLEDFRQKRSMGLTLAESELTKLDAERDKDRLTLEKERTCAEQIVAKIEEVLMTAQAVEEDKSSTMQYVILMYMKHLGVKVKEPRNLEHKRGRIGFLPKIKQSMKKDKEGEEKGKRRGFPSILGPPRRPSRHDNSAIGRAMELQKARHPKHLSTPSSVSPEPQDSAKLRQSGLANEGTDAGYLPANSMSSVASGASFSQEGGKENDTGSKQVGETSAPGDTLDGTPRTLNTVFDFPPPPLDQVQEEECEVERVTEHGTPKPFRKFDSVAFGESQSEDEQFENDLETDPPNAQQLVSREVLLGLKPCEIKRQEVINELFYTERAHVRTLKVLDQVFYQRVSREGILSPSELRKIFSNLEDILQLHIGLNEQMKAVRKRNETSVIDQIGEDLLTWFSGPGEEKLKHAAATFCSNQPFALEMIKSRQKKDSRFQTFVQDAESNPLCRRLQLKDIIPTQMQRLTKYPLLLDNIAKYTEWPTEREKVKKAADHCRQILNYVNQAVKEAENKQRLEDYQRRLDTSSLKLSEYPNVEELRNLDLTKRKMIHEGPLVWKVNRDKTIDLYTLLLEDILVLLQKQDDRLVLRCHSKILASTADSKHTFSPVIKLSTVLVRQVATDNKALFVISMSDNGAQIYELVAQTVSEKTVWQDLICRMAASVKEQSTKPIPLPQSTPGEGDNDEEDPSKLKEEQHGISVTGLQSPDRDLGLESTLISSKPQSHSLSTSGKSEVRDLFVAERQFAKEQHTDGTLKEVGEDYQIAIPDSHLPVSEERWALDALRNLGLLKQLLVQQLGLTEKSVQEDWQHFPRYRTASQGPQTDSVIQNSENIKAYHSGEGHMPFRTGTGDIATCYSPRTSTESFAPRDSVGLAPQDSQASNILVMDHMIMTPEMPTMEPEGGLDDSGEHFFDAREAHSDENPSEGDGAVNKEEKDVNLRISGNYLILDGYDPVQESSTDEEVASSLTLQPMTGIPAVESTHQQQHSPQNTHSDGAISPFTPEFLVQQRWGAMEYSCFEIQSPSSCADSQSQIMEYIHKIEADLEHLKKVEESYTILCQRLAGSALTDKHSDKS
